Test results as given in the DeepSol protein solubility set.

assay: soluble on expression in E. coli; label from the status in PepcDB or PDB records

Row | Sequence | soluble on expression in E. coli
1 | MGSDKIHHHHHHMPDKSLKKPFVHLIGAGPGDPGLITVKGRESLGRADVVIYDYLANDDLLRFARPDAELIYAGKIGGHHNREQWQINALLVEKALAGNVVARLKGGDSFVFGRGGEECEALVAAGIPFEIVPGVTAGIGVTAYAGIPLTHRGVTTSVTFVTGHEGHDKEVSQIDWEGLSLGSGTVVFYMGIKNLPQITANLMAHGRPPETPVALIRWGTRPEQEVLTGTLADIAEQARRTGFRAPAITVVGEVVRLREKLRWFDNRPLFGTSILVTRAADQAGEFGAMLGALGARVLECPTIAIVPPESWDNLDAAIASLDRFHWAVFTSVNAVRFFFERLAAAGKDSRALGNCRVCAVGPKTAAALAPFGIRPDLIPADYKGEGVVEVFRSEEIAGKRIIFPKGDRARDVIPQGLAELGGEVTAPVAYRNVTPDSLPAGVIAELEERRITCVTFTSSSTVENLAAILGENRFLHLLKGVTIAAIGPITARTCRELGLEVHVEPSKYTLAAMTDALVDFFSRSK | not soluble
2 | MGSDKIHHHHHHMEWEVFEYRTKGIMAEIEAGRLKIVSSYVDKSFSARVILKGRVGFASASTRDEALSLAEKIARISEDELEDFPNEKPASVKGIYDKRVEEADSELIMEEFERLRSAVEKANIASATIEHAVEEVRITNSFGLDSREKSTSSSMIVEAVFEGGSAYEVCGSRSIELDIEGAAKKAEELAVDSAKAIKIEGGTYDVILQPIAVHQLLSNTLYPSLSAENVEKGRSVIRLGDEFGRITVIDDPTVEGGLMSCGFDDEGVSARKTFLIDNGVVRSYYTDWKHSKKYGVTGNGFRLEESSFPAPMVSNVVLEVDDADDDNCLTIHSLIGSHTANPVSGDFSLECNNAYFGEKAVKGAMIYGNVFELLKKVEGGLGELRQIENTVTKSLRFRSVRVI | not soluble
3 | MGSDKIHHHHHHMAESIRPLTKNDRQQFVTVMTKVFAKDPLFLYIFGDLYNDHRAQRRARTFMGFIFDKSMERQAEAVWGLFDKDTLLGTYVVESCPAETNHSFAELYRLMILIFRLSLQLPPKMTWQLNRYMRVTRAHAPSIPHHYLTIIGVRKEAQGAGRGRNLLEHIFGTIGSGELSLDTEKKENVTLYKKFGFVLTDVVKCGPINVYCMRKTIRPRQKN | not soluble
4 | MKEKISEKEYKALIRKTGKEHFDGEKEEYGDGTVGVWTYELRKYKLKPPVKVKYVTQEQFQEYKDSNNQRLIKIENKVDKLVEIVQIHGEQIKAQGETLQLILQTLQKMSDRLDKMEKRIDKLESKLEHHHHHH | not soluble
5 | MHYCDLDIAECDGVYPPSEDSFLIIEYASCSGKAIEIGCGTGIVSICFLKRGCDIEAVDISDLAVECAKDNASRNGLTLKVYRSDLFSGVSGTYDTILFNAPYIPVEGEDASWSGGRNLEVVSRFLGQAREHLSASGQIYIVLSDLTDNEGMFRMMGYDYFIIKKISFEFEAIVLYKLTLKALEHHHHHH | soluble
6 | LVSSPSTLNPGTNVAKLAEQAPVHWVSVAQIENSLTGRPPMAVGFDIDDTVLFSSPGFWRGKKTYSPDSDDYLKNPAFWEKMNNGWDEFSIPKEAARQLIDMHVRRGDSIYFVTGRSQTKTETVSKTLADNFHIPAANMNPVIFAGDKPEQNTRVQWLQEKNMRIFYGDSDNDITAARDCGIRGIRILRAANSTYKPLPQAGAFGEEVIVNSEY | soluble
7 | MSDSNTSSLPRAAQLEPDAAPAVAVLQQALQWQVIFWSGEATDRDRMRWQSWLAADPAHARAWAQVQRTDEQLQTLASPAAEVLRSADARRCKARRTVLGMAGLLAGAGIMGCGLRQTAQWQMMMADDHTGYGERRNIELADGTQVTLGSATAIDVCYSAQARQLLLRTGEIFIVTAPDSADRPFLVQTTRGSVQALGTRFNVRESGEQIQVAVQDGAVAIRPAGMNPGDVVRLDAGQQTCFDHTKVEAAEALQISATAWTRGLLVAERMRLEDFLVELGRYRSGVLRCDPAVRDLIVSGVYSLDDTDQSLRLLAQALPVQVQTVTRWWTIVGPRPMK | not soluble
8 | MEERNHENTLEKDLEAVGQEAQALEERLKAAEEELKGLKDKYLRLLADFDNYRKRMEEELKAREREGVLKALRALLPVLDDLDRALEFAEASPESIRQGVRAIRDGFFRILAGLGVEEVPGEGEAFDPRYHEAVGLLPGEPGKVAKVFQRGFRMGEALVRPARVAVGEEKREEADLE | soluble
9 | MKKILLVFLVGTMAFAAYGAEGDVQVSKSVEDSITKDYDQDGVYSSYEKALRRAQESVYVTLPEKRGYWYTMLDRIKAEEEELMPDEQARMRRKR | not soluble
